Assay results reported in patent US20130071410A1 (published 2013).

Molecular target: T1, human CGRP receptor (CRLR + RAMP1) (human, UniProt Q16602 23-461; O60894 27-148)
T1 construct: also called hCGRP R; huCGRP R
Assay: FACS staining of transfected cells

T1 sequence (Q16602 23-461 limits assumed, chain 1 of 2): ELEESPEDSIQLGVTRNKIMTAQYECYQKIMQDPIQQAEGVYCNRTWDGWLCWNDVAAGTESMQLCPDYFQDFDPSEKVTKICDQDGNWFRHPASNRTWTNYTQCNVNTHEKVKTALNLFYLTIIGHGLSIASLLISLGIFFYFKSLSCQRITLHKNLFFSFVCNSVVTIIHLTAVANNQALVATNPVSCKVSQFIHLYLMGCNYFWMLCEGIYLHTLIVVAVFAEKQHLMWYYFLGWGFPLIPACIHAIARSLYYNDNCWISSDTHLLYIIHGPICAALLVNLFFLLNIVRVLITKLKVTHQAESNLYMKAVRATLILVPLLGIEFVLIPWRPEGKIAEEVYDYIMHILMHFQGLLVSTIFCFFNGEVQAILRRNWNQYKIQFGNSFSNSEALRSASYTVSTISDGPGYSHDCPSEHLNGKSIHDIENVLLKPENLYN
T1 sequence (O60894 27-148 limits assumed, chain 2 of 2): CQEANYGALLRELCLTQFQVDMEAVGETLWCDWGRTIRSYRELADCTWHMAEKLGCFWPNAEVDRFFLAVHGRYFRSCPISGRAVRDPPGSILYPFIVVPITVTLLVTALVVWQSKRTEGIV

B1: Alexa 647-labeled CGRP8-37 peptide analog (peptide)
peptide: Ac-WVTHRLAGLLSRSGGVVRCNFVPTDVGPFAF-NH2
modifications: also: Alexa 647 label, site not given here
notes: also called Alexa647-CGRP8-37
binding result: binds
